In article PMC11952669 (Research Square, 2025):

Experiments:
[1] = biological target: Biotinylated VsCoV-a7 RBD (residues 356–556) (bat MERSr-CoV VsCoV-a7 (from Vespertilio sinensis)); experiment: BLI
[2] = biological target: the molecule itself; experiment: cryo-EM structure

| Molecule | Kd [1] [nM] | binding result [2] |
| --- | --- | --- |
| E.fus ACE2 ectodomain (residues 1–747), dimeric (receptor) | 816 |  |
| R.nor ACE2 ectodomain (residues 1–741), dimeric (receptor, also called soluble dimeric R.nor ACE2; R.nor (Rodent) ACE2; source: Expi293F, purified (Ni Sepharose, Superose-6 gel filtration)) QSLIEEKAESFLNKFNQEAEDLSYQSSLASWNYNTNITEENAQKMNEAAAKWSAFYEEQSKIAQNFSLQEIQNATIKRQLKALQQSGSSALSPDKNKQLNTILNTMSTIYSTGKVCNSMNPQECFLLEPGLDEIMATSTDYNRRLWAWEGWRAEVGKQLRPLYEEYVVLKNEMARANNYEDYGDYWRGDYEAEGVEGYNYNRNQLIEDVENTFKEIKPLYEQLHAYVRTKLMEVYPSYISPTGCLPAHLLGDMWGRFWTNLYPLTTPFLQKPNIDVTDAMVNQSWDAERIFKEAEKFFVSVGLPQMTPGFWTNSMLTEPGDDRKVVCHPTAWDLGHGDFRIKMCTKVTMDNFLTAHHEMGHIQYDMAYAKQPFLLRNGANEGFHEAVGEIMSLSAATPKHLKSIGLLPSNFQEDNETEINFLLKQALTIVGTLPFTYMLEKWRWMVFQDKIPREQWTKKWWEMKREIVGVVEPLPHDETYCDPASLFHVSNDYSFIRYYTRTIYQFQFQEALCQAAKHDGPLHKCDISNSTEAGQKLLNMLSLGNSGPWTLALENVVGSRNMDVKPLLNYFQPLFVWLKEQNRNSTVGWSTDWSPYADQSIKVRISLKSALGKNAYEWTDNEMYLFRSSVAYAMREYFSREKNQTVPFGEADVWVSDLKPRVSFNFFVTSPKNVSDIIPRSEVEEAIRMSRGRINDIFGLNDNSLEFLGIYPTLKPPYEPPVTI |  | binds |
